From article doi:10.1101/2021.06.08.447469

Biological target: T1, MbpAgo (Mucilaginibacter paludis, UniProt H1YCU5 1-795)
T1 sequence: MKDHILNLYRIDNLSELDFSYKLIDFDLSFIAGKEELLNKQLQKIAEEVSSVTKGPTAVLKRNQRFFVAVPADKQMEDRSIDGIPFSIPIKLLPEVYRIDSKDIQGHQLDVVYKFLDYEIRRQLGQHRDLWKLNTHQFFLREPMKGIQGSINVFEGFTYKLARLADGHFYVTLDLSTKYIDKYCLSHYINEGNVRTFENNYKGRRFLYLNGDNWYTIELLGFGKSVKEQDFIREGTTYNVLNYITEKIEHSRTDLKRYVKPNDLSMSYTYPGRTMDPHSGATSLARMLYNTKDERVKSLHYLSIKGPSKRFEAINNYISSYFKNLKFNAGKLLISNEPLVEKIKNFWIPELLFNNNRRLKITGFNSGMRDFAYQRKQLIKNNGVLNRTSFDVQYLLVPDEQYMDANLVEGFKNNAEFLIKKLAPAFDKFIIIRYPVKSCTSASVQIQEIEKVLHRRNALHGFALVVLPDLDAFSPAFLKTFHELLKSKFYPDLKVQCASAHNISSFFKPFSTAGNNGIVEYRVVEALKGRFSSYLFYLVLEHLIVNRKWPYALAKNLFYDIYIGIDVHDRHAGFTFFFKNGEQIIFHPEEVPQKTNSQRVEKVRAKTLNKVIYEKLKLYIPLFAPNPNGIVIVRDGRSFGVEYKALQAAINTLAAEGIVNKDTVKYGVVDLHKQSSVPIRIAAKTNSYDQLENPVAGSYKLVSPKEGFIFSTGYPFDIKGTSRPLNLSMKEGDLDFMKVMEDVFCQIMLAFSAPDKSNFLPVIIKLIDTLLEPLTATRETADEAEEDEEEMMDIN
Test: EMSA

TGAGGTAGTAGGTTGTAT (ssDNA, 5' phosphate) [18 nt 5'P-gDNA (FAM T-gDNA)]
Kd: 254 ± 23.3 nM

TGAGGTAGTAGGTTGTAT (ssDNA) [18 nt 5'OH-gDNA (FAM T-gDNA)]
Kd: 292 ± 25.2 nM
